Data as given in patent US20220242974A1 (QURE BIOTECHNOLOGY SHANGHAI, published 2022).

B1: QP1129 nanobody (VHH)
VHH: QVQLVESGGGSVQSGGSLRLSCAASGYSSSRYSVGWFRQAPGKEREGVAGQTPRGTTTYADSVKDRFTISRDNAKNTVYLQMNSLKPEDTAMYYCAAGQALLWASLRQTSYQFWGQGTQVTVSS
notes: as m59
B2: QP1123 nanobody (VHH)
VHH: QVQLVESGGGSVQSGGSLRLSCAASGYTVRHYCMGWFRQTPGKEREGVASIDTFGIPKYADSVKGRFTISQDNAKNTLNLQMDSLKPEDTAMYFCAGRSYTNCRDGPPSASHYSHWGQGTQVTVSS
notes: as m59
B3: QP1163 nanobody (VHH)
VHH: QVQLVESGGGSVQSGGSLRLSCAASGFTYGTYAMSWFRQAPGKEREGVACIDIYGRTSYTDPVKGRFTISQDNAKNTLYLQMNSLKPEDTAMYYCAARDFGYCTASWVHAGFSRYWGQGTQVTVSS
notes: as m59
B4: QP1168 nanobody (VHH)
VHH: QVQLVESGGGSVQSGGSLRLSCAASGFTYETYAMSWFRQAPGKEREGVACIDIYGRTSYTDPVKGRFTISQDNAKNTLYLQMNSLKPEDTAMYYCAARDFGYCTASWVHEGFSRYWGQGTQVTVSS
notes: as m59
B5: QP1164 nanobody (VHH)
VHH: QVQLVESGGGSVQSGGSLRLSCAASGFTYGTYAMSWFRQTPGKEREGVACIDIYGRTSYTDPVKGRFTISQDNAKNTLYLQMNSLKPEDTAMYYCAARDFGYCTASWVHEGFSRYWGQGTQVTVSS
notes: as m59
B6: QP1169 nanobody (VHH)
VHH: QVQLVESGGGSVQSGGSLRLSCAASGFTYGTYAMSWFRQAPGKEREGVACIDIYGRTSYTDPVKGRFTISQDNAKNTLYLQMNSLKPGDTAMYYCAARDFGYCTASWVHEGFSRYWGQGTQVTVSS
notes: as m59
B7: QP1165 nanobody (VHH)
VHH: QVQLVESGGGSVQSGGSLRLSCAASGFTYGAYAMSWFRQAPGKEREGVACIDIYGRTSYTDPVKGRFTISQDNAKNTLYLQMNSLKPEDTAMYYCAARDFGYCTASWVHEGFSRYWGQGTQVTVSS
notes: as m59
B8: QP1147 nanobody (VHH)
VHH: QVQLVESGGGSVQAGGSLTLSCAVSGNTYSTKYMGWFRQAPGKEREGVAAILAGGRNTYYADSVKGRFTISQDNAKNTVYLQMNSLKPEDTAMYYCAADTRAAFWYIGPLNSDQYNIWGQGTQVTVSS
notes: as m59
B9: QP1161 nanobody (VHH)
VHH: QVQLVESGGGSVQAGGSLTLSCAVSGNTYSTNYMAWFRQAPGKEREGVAAIRVGGRNTDYADSVKGRFTISQDNAKNTVYLQMNSLKPEDTAMYYCAADTRAAFWYIGPLNSDQYNIWGQGTQVTVSS
notes: as m59
B10: QP1145 nanobody (VHH)
VHH: QVQLVESGGGSVQAGGSLTLSCAVSGNTYSTKYMAWFRQAPGKEREGVAAILAGGRNTSYADSVKGRFTISQDNAKNTVYLQTNSLKPEDTAMYYCAADTRAAFWYIGPLNSHQYNIWGQGTQVTVSS
notes: as m59
B11: QP1159 nanobody (VHH)
VHH: QVQLVESGGGSVQAGGSLTLSCAVSGNTYSTKYMGWFRQAPGKEREGVAAILAGGRNTSYADSVKGRFTISQDNAKNTVYLQMNSLKPEDTAMYYCAADTRAAFWYIGPLNSDQYNIWGQGTQVTVSS
notes: as m59
B12: QP1158 nanobody (VHH)
VHH: QVQLVESGGGSVQAGGSLTLSCAVSGNTYSTKYMGWFRQAPGKEREGVAAILAGGRNTYYADSVKGRFTISQDNAKNTVYLRMNSLKPEDTAMYYCAADTRAALWYIGPLNSDQYNTWGQGTQVTVSS
notes: as m59
B13: QP1153 nanobody (VHH)
VHH: QVQLVESGGGSVQAGGSLTLSCAVSGNTYSTKYMGWFRQAPGKEREGVAAILAGGRNTDYADSVKGRFTISQDNAKNTVYLQMNSLKPEDTAMYYCAADTRAAFWSIGPLNSDQYNIWGQGTQVTVSS
notes: as m59
B14: QP1149 nanobody (VHH)
VHH: QVQLVESGGGSVQAGGSLTLSCAVSGNTYSTNYMGWFRQAPGKEREGVAAILAGGRNTYYADSVKGRFTISQDNAKDTVYLQMNSLKPEDTAMYYCAADTRAAFWNIGPLNSDQYNIWGQGTQVTVSS
notes: as m59
B15: QP1150 nanobody (VHH)
VHH: QVQLVESGGGSVQAGGSLTLSCAVSGNTYSTKYMGWFRQAPGKEREGVAAILAGGRNTHYADSVKGRFAISQDNAKNTVYLQMNSLKPEDTAMYYCAADTRAAFWNIGPLNSDQYNIWGQGTQVTVSS
notes: as m59
B16: QP1146 nanobody (VHH)
VHH: QVQLVESGGGSVQAGGSLTLSCAVSGNTYSTNYMGWFRQAPGKEREGVAAILVGGRNTYYADSVKGRFTISQDNAKNLVYLQMNSLKPEDTAMYYCAADTRAAFWNIGPLNSDQYNIWGQGTQVTVSS
notes: as m59
B17: QP1142 nanobody (VHH)
VHH: QVQLVESGGGSVQAGGSLTLSCAVSGNTYSTNIMGWFRQAPGKEREGVAAILAGGRNTYYADSVKGRFTISQDNAKNTVYLQMNSLKPEDTAMYYCAADTRAAFWNIGPLNSDQYNIWGQGTQVTVSS
notes: as m59
B18: QP1154 nanobody (VHH)
VHH: QVQLVESGGGSVQAGGSLTLSCAVSGNTYSTNYMAWFRQAPGKEREGVAAIRAGGRNTDYADSVKGRFTISQDNAKNTVYLQMNSLKPEDTAMYYCAADTRAAFWYIGPLNSDQYNIWGQGTQVTVSS
notes: as m59
B19: QP1160 nanobody (VHH)
VHH: QVQLVESGGGSVQAGGSLTLSCAISGNTYSTKYMGWFRQAPGKEREGVAAILAGGRNTYYADSVKGRFTISQDNAKNTVYLQMNSLKPEDTAMYYCAADARAAFWYIGPLNSDQYNIWGQGTQVTVSS
notes: as m59
B20: QP1139 nanobody (VHH)
VHH: QVQLVESGGGSVQAGGSLTLSCAVSGNTYGTNAMGWFRQAPGKEREGVAAILGGGRNTYYADSVKGRFTISQDNAKNTVYLQMNSLKPEDTAMYYCAADTRAAFWNIGPLNSDQYNIWGQGTQVTVSS
notes: as m59
B21: QP1148 nanobody (VHH)
VHH: QVQLVESGGGSVQAGGSLTLSCAVSGNTYSTNYMGWFRQAPGKEREGVAAILAGGRNTAYADSVKGRFTISQDNAKNTVYLQMNSLKPEDTAMYYCAADTRAAFWNIGPLNSDQYNIWGQGTQVTVSS
notes: as m59
B22: QP1156 nanobody (VHH)
VHH: QVQLVESGGGSVQAGGSLTLSCAVSGNTYSTKYMGWFRQAPGKEREGVAAILAGGRNTYYADSVKGRFTISQDSAKNTVYLQMNSLKPEDTAMYYCAADTRAAFWYIGPLNSDQYNSWGQGTQVTVSS
notes: as m59
B23: QP1155 nanobody (VHH)
VHH: QVQLVESGGGSVQAGGSLTLSCEVSGSTYSTNYMGWFRQAPGKEREGVAAILAGGRNTDYADSVKGRFTISQDNAKNTVYLQMNSLKPEDTAMYYCAADTRAAFWYIGPLNSDQYNIWGQGTQVTVSS
notes: as m59
B24: QP1143 nanobody (VHH)
VHH: QVQLVESGGGSVQAGGSLTLSCAVSGNTYSTKYMGWFRQAPGKEREGVAAILAGGRDTYYADSVKGRFTISQDNAKNTVYLQMNSLKPEDTAMYYCAADTRAAFWYIGPLNSDQYNIWGQGTQVTVSS
notes: as m59
B25: QP1141 nanobody (VHH)
VHH: QVQLVESGGGSVQAGGSLTLSCAVSGNTYSTNAMGWFRQAPGKEREGVAAILGGGRNTYYADSVKGRFTISQDNAKNTVYLQMNSLKPEDTAMYYCAADTRAAFWNIGPLNSDQYNIWGQGTQVTVSS
notes: as m59
B26: QP1157 nanobody (VHH)
VHH: QVQLVESGGGSVQAGGSLTLSCAVSGNTYSTNYMGWFRQAPGKEREGVAAILVGGRNTYYADPVKGRFTISQDNAKNLVYLQMNSLKPEDTAMYYCAADTRAAFWNIGPLNSDQYNIWGQGTQVTVSS
notes: as m59
B27: QP1152 nanobody (VHH)
VHH: QVQLVESGGGSVQAGGSLTLSCAISGNTYSTKYMGWFRQAPGKEREGVAAILAGGRNTYYADSVKGRFTISQDNAKNTVYLQMHSLKPEDTAMYYCAADTRAAFWYIGPLNSDQYNLWGQGTQVTVSS
notes: as m59
B28: QP1140 nanobody (VHH)
VHH: QVQLVESGGGSVQAGGSLTLSCVVSGNTYSTKYMGWFRQAPGKEREGVAAILAGGRNTYYADSVKGRFTISQDNAKNTVYLQMNSLKPEDTAMYYCAADTRAAFWNIGPLNSDQYNIWGQGTQVTVSS
notes: as m59
B29: QP1151 nanobody (VHH)
VHH: QVQLVESGGGSVQAGGSLTLSCAVSGNTYSTNYMGWFRQAPGKEREGVAAILTGGRNTYYADSVKGRFTISQDNAKNTVYLQMNSLKPEDTAMYYCAADTRAAFWNIGPLNSDQYNIWGQGTQVTVSS
notes: as m59
B30: QP1121 nanobody (VHH)
VHH: QVQLVESGGGSVHAGGSLRLSCVRVSMYTYTGTCMAWFRQAPGKEREGVAGLWTGDGVTYYADSVKGRFTISQDDAKNTLYLQMDSLKPEDTAMYYCASNGMCGQYWALEDEYKYWGQGTQVTVSS
notes: as m59
B31: QP1130 nanobody (VHH)
VHH: QVQLVESGGGLVQPGGSLRLSCAASGFTFSTSTMMWVRRAPGKGLEWVSGIHNDGGPIAYADSVKGRFTISRDNAKNTLYLQMTSLKSEDTALYYCARGWYFSGDYVPMTQGTQVTVSS
notes: as m59

Target: PD-L1-his fusion protein (Homo sapiens (Human), UniProt Q9NZQ7 19-238)
Experiment: ELISA, PD-L1-his coated, culture supernatant of the clone

Sequence of PD-L1-his fusion protein (Q9NZQ7 other isoform, or with tags, fused parts or gaps limits assumed): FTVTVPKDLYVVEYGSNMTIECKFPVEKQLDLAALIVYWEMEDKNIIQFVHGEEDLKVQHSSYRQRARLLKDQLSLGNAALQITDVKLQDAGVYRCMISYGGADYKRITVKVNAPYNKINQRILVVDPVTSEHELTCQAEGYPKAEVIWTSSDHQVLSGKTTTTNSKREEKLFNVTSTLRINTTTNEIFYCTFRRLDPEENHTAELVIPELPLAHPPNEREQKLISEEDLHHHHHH

Binding result, binds:
B1
B2
B3
B4
B5
B6
B7
B8
B9
B10
B11
B12
B13
B14
B15
B16
B17
B18
B19
B20
B21
B22
B23
B24
B25
B26
B27
B28
B29
B30
B31
